One substance from patent US20040072255 can be followed below.

Series [1] concerns rat fast skeletal troponin I, alpha or monophosphorylated form.
The subject of series [2] is rat fast skeletal troponin I, beta or diphosphorylated form.

Chain of rat fast skeletal troponin I, beta or diphosphorylated form (chain, as listed by the source): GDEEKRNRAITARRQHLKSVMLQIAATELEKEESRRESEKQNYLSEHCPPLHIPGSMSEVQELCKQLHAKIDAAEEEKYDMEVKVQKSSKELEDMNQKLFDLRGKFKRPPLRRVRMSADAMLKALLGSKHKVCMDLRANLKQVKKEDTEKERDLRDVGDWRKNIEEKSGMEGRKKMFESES
Chain of rat fast skeletal troponin I, alpha or monophosphorylated form (chain, as listed by the source): as above

Protein phosphatase-1 (Sigma): the “dephosphorylation of myofibrils prior to 2-dimensional SDS-PAGE” value in series [1] and in series [2] was “Neither form was evident in samples after dephosphorylation with PP-I” in each case.
